# T1: MERS-CoV Spike (S) glycoprotein, England1 strain, full length (MERS-CoV, England1 strain, UniProt K9N5Q8 19-1353)
# T1 sequence: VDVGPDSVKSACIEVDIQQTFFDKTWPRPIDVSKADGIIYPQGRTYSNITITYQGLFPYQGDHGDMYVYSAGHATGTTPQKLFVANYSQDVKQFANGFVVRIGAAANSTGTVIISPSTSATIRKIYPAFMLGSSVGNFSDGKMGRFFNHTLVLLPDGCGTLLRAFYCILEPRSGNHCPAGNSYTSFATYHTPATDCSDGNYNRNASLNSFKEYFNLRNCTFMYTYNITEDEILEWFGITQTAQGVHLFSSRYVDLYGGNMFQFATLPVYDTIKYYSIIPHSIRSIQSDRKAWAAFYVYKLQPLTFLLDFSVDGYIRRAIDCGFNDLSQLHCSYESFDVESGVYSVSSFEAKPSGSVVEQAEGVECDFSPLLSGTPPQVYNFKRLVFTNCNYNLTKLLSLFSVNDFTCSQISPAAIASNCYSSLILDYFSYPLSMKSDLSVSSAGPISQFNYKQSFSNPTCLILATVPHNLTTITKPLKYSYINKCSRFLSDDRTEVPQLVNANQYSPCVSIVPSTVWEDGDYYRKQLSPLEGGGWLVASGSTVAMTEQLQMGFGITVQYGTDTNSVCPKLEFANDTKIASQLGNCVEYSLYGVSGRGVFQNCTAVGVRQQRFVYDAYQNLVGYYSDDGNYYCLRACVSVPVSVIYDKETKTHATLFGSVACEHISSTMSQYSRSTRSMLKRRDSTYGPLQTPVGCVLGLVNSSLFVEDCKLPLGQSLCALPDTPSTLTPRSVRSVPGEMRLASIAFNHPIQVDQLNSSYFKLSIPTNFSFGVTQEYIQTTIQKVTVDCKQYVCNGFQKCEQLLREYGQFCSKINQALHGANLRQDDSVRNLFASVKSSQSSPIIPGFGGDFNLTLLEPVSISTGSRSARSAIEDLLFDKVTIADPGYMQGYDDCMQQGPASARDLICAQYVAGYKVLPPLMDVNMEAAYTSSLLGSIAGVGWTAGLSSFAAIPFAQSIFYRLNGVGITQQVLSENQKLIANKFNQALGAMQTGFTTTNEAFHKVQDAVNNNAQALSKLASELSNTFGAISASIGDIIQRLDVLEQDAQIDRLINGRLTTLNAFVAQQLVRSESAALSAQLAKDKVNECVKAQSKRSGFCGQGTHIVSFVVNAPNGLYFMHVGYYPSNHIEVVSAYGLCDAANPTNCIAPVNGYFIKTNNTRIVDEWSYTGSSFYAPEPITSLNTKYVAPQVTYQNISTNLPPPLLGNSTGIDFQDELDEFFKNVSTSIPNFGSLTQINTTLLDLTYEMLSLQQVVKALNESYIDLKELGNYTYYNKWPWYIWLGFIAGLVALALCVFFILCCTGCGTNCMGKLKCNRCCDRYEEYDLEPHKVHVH
# T2: MERS-CoV S1 protein, England1 strain, soluble (MERS-CoV, England1 strain, UniProt K9N5Q8 19-752)
# T2 sequence: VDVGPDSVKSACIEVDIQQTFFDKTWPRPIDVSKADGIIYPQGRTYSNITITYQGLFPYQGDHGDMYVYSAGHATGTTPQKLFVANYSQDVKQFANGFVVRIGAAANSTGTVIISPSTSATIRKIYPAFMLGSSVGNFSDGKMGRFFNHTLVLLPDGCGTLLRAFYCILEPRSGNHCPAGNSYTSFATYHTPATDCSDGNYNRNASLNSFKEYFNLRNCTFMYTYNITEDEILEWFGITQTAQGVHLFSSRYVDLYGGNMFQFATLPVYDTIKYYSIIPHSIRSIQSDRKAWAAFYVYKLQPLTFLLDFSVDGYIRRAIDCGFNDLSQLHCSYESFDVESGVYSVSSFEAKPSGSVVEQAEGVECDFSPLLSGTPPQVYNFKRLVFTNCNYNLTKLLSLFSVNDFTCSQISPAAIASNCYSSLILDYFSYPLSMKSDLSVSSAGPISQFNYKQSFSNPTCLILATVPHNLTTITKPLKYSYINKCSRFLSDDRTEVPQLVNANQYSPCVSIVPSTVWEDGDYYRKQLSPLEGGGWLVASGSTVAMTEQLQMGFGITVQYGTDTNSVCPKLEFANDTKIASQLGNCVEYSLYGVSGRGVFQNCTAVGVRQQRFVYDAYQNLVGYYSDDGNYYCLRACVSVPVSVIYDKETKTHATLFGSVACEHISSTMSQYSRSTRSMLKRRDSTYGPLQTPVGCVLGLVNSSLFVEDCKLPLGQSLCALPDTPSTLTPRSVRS
# B1: MERS-CoV S protein receptor binding domain (RBD), England1 strain, soluble (other)
# chain: EAKPSGSVVEQAEGVECDFSPLLSGTPPQVYNFKRLVFTNCNYNLTKLLSLFSVNDFTCSQISPAAIASNCYSSLILDYFSYPLSMKSDLSVSSAGPISQFNYKQSFSNPTCLILATVPHNLTTITKPLKYSYINKCSRFLSDDRTEVPQLVNANQYSPCVSIVPSTVWEDGDYYRKQLSPLEGGGWLVASGSTVAMTEQLQMGFGITVQYGTDTNSVCPKLEFANDTKIASQLGNCVEY
# How the values were obtained:
# [1] = target: T1, MERS-CoV Spike (S) glycoprotein, …; experiment: cell-based or functional assay
# [2] = target: B1; experiment: ELISA, hybridoma supernatant
# [3] = target: T2, MERS-CoV S1 protein, England1 strain, …; experiment: ELISA, hybridoma supernatant
# [4] = target: B1; experiment: ELISA; x axis 'Protein concentration (µg/ml)'
# [5] = target: T2, MERS-CoV S1 protein, England1 strain, …; experiment: ELISA; x axis 'Protein concentration (µg/ml)'
# [6] = target: T1, MERS-CoV Spike (S) glycoprotein, …; experiment: cell-based or functional assay; remark: listed apart in the source
# D12 antibody = experiment: cell-based or functional assay
# [7] = target: B1; experiment: ELISA on RBD, mAb titrated 0.0032-10 µg/ml
# [8] = target: B1
# [9] = target: T2, MERS-CoV S1 protein, England1 strain, …
# [10] = target: T2, MERS-CoV S1 protein, England1 strain, …; experiment: ELISA on RBD, S1 or S2 coated plates
# [11] = target: B1; experiment: ELISA on RBD coated plates
# [12] = target: B1; experiment: ELISA specificity (FIG. 22), told only by this label
# Chain of D12 antibody (VH, as listed by the source, chain 1 of 2): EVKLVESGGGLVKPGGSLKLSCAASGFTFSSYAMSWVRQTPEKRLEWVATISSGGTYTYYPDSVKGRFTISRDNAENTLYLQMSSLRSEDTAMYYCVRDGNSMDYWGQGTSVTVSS
# Chain of D12 antibody (VL, as listed by the source, chain 2 of 2): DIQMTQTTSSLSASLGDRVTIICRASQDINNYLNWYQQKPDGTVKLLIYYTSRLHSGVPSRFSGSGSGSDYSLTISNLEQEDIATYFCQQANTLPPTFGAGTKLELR
binder,measurement,setting,value
"G4 antibody (antibody, V domains shown) VH: QVQLQQSGPELVRPGVSVKISCKGSGYTFTDYAIHWVKQSHAKSLEWIGVFSTYYGNTNYNQKFKGRATMTVDKSSSTAYMELARLTSEDSAIYYCARKSYYVDYVDAMDYWGQGTSVTVSS VL: not shown",IC50,[1],0.133 µg/mL
same,IC80,[1],0.806 µg/mL
same,ELISA (unit not given),[2],0.05
same,ELISA (unit not given),[3],0.06
same,binding result,[4],no binding (tested: 10 µg/ml)
same,binding result,[5],no binding (tested: 10 µg/ml)
same,pseudotyped MERS-CoV (England1) virus neutralization potency,[6],~10 fold lower
B1,IC50 (read off the curve),D12 antibody,~2 µg/mL
"F11 antibody (antibody, V domains shown) VH: EVKLEESGGGLVKPGGSLKLSCAASGFTFSRYAMSWVRQTPEKRLEWVATINNGGSYSYYPDSVKGRLTISRDNAKNTLYLQMSSLRSEDTALYYCARHYDYDGYYYTMDFWGQGTSVTVSS VL: DVLMTQIPLSLPVSLGDQASISCRSSQSIVHSNGNTYLEWYLQKPGQSPKPLIYKVSNRISGVPDRFSGSGSGTDFTLKISRVEAEDLGVYYCFQGSHVPYTFGGGTNLEIKR",EC50 (read off the curve),[7],~0.05 µg/mL
same,IC50,[1],0.008 µg/mL
same,IC80,[1],0.052 µg/mL
same,Kd,[8],114 nM
same,koff,[8],0.0079 s⁻¹
same,kon,[8],69100 M⁻¹ s⁻¹
same,Kd,[9],3.49 nM
same,koff,[9],0.000391 s⁻¹
same,kon,[9],112000 M⁻¹ s⁻¹
same,ELISA (unit not given),[3],2.67
"G2 antibody (antibody, V domains shown) VH: QVQLQQSGGELVKPGASVKLSCKTSGFTFSSSYISWLKQKPGQSLEWIAWIYAGTGGTEYNQKFTGKAQVTVDTSSSTAYMQFSSLTTEDSAIYYCARGGSSFAMDYWGQGTSVTVSS VL: not shown",IC50,[1],0.013 µg/mL
same,IC80,[1],0.35 µg/mL
same,Kd,[9],1.69 nM
same,koff,[9],0.000188 s⁻¹
same,kon,[9],111000 M⁻¹ s⁻¹
same,ELISA (unit not given),[2],0.04
same,binding result,[2],no binding (tested: not given (supernatant))
same,EC50 (read off the curve),[5],~0.09 µg/mL
"FIB_B2 NHP antibody (antibody, V domains shown) VH: QVQLQESGPGLVKPSETLSLTCAVSGGSISSNYWYWIRQSPVKGLEWIGYIYGGSGGTEYNPSLKSRVTISTDTSKNQFFLKLSSVTAADTAVYYCARSFYSWNGESWGQGVVVTVSS VL: DIQMSQTPSSLSASVGDRVTITCRASQGINDYLNWYQQKPGKAPKLLIYYGNSLASGVPSRFSGSGSGTDFSLTISSLQPEDFATYYCQQGDSFPLTFGGGTKVDIK",binding result,[10],binds
same,binding result,[11],no binding
"FIB_H1 NHP antibody (antibody, V domains shown) VH: EVQLVQSGAEVKKPGASVKVSCKASGHIFTSYVINWLQEAPGQGFEWMGGIHPGNGGRDYAQKFQGRVTITADMSTSTVYMELRSLRSEDMAVYYCAASSGSYGVSSLDVWGRGVLVTVSS VL: QSALTQPPSLSASPGASARLPCTLSSDLSVGSKNMYWYQQKPGSAPRLFLYYYSDSDKQLGPGVPNRVSGSKETSSNTAFLLISGLQPEDEADYYCQVYDSSANWVFGGGTRLTVL",binding result,[11],no binding
"A2 human antibody (antibody, V domains shown) VH: QVQLVESGGGLVKPGGSLRLSCAASGFTFSDYYMSWIRQAPGKGLEWVSYISSSGSTIYYADSVKGRFTISRDNAKNSLYLQMNSLRAEDTAVYYCARVGLGSGWYDWFDPWGQGTLVTVSS VL: QSALTQPPSVSGAPGQRVTISCTGSSSNIGASYDVHWYQHLPGTAPKLLIYGNTNRPSGVPDRFSGSKSGTSASLAITGLQAEDEADYYCQSYDSSLSGVVFSGGTKLTVL",binding result,[12],no binding
"A10 human antibody (antibody, V domains shown) VH: QVQLVQSGAEVKKPGSSVKVSCKASGGTFSTYALSWVRQAPGQGLEWMGGIIPIFGTANYAQKFQGRVTITADESTSTAYMELNSLRSEDTAVYYCARGSRSSSSAEYFQHWGQGTLVTVSS VL: QSALTQPRSVSGSPGQSVTISCTGTSSDVGGYNYVSWYQQHPGKAPKLMIYDVSKRPSGVPDRFSGSKSGNTASLTISGLQAEDEADYYCCSYAGSYTLEVVFGGGTKLTVL",binding result,[12],no binding
